assay: soluble on expression in E. coli; label from the status in PepcDB or PDB records

Soluble on expression in E. coli, not soluble:
MGSDKIHHHHHHMKNIYLFIVSLFFFYTGCDTQQTKYPFSVETVLAKAGNNRKELEKALDYFYKQGDSIKIKAIEFLVAHMDIHYSETYYWKTREGKRVDFSEFDYANLETAVKAIDSMRKKYGSLDFQDTIIYDVNSLTGKYLINNVNHAVDTWRLSEYKDIPFNDFCEYILPYRVTVEPVTEWRKEYCKRYHWLTDSLQNKPLENVLDYAAIDYKDWFTFTYGSETRNEPLSRLSAQQLLFRKKGACEDIAALETFIFRSQGIPAAYISVPLWATSAGAHFSNTVFDTKMKPVKLDVTTHAVVDHPLDREPSKVIRYTYSSQPGTLASKEKEECIPTGFLQKTNYIDVTHEYWETSDVTIPLFNDTTHIIYACMFSMGRWNAEWWGERMENSVTFHNMPRGVVILPMIYKEHQLIPIGYPIVNGYNHQLYLVPDLLHTMTVEIEEQDRYLRFRPDKKYELFYWDNAWISLGTQVATMDADCLQFNQVPQNVLMLLVPEYSERKERPFIIMPDGTRYWW
MGSDKIHHHHHHMKNTELEQLINEKLNSAAISDYAPNGLQVEGKETVQKIVTGVTASQALLDEAVRLGADAVIVHHGYFWKGESPVIRGMKRNRLKTLLANDINLYGWHLPLDAHPELGNNAQLAALLGITVMGEIEPLVPWGELTMPVPGLELASWIEARLGRKPLWCGDTGPEVVQRVAWCTGGGQSFIDSAARFGVDAFITGEVSEQTIHSAREQGLHFYAAGHHATERGGIRALSEWLNENTDLDVTFIDIPNPA
MGSDKIHHHHHHMKPIKEIADQLELKDDILYPYGHYIAKIDHRFLKSLENHEDGKLILVTAVTPTPAGEGKTTTSIGLSMSLNRIGKKSIVTLREPSLGPTLGLKGGATGGGRSRVLPSDEINLHFTGDMHAVASAHNLLAAVLDSHIKHGNELKIDITRVFWKRTMDMNDRALRSIVIGLGGSANGFPREDSFIITAASEVMAILALSENMKDLKERLGKIIVALDADRKIVRISDLGIQGAMAVLLKDAINPNLVQTTEGTPALIHCGPFANIAHGTNSIIATKMAMKLSEYTVTEAGFGADLGAEKFIDFVSRVGGFYPNAAVLVATVRALKYHGGANLKNIHEENLEALKEGFKNLRVHVENLRKFNLPVVVALNRFSTDTEKEIAYVVKECEKLGVRVAVSEVFKKGSEGGVELAKAVAEAAKDVEPAYLYEMNDPVEKKIEILAKEIYRAGRVEFSDTAKNALKFIKKHGFDELPVIVAKTPKSISHDPSLRGAPEGYTFVVSDLFVSAGAGFVVALSGDINLMPGLPKKPNALNMDVDDSGNIVGVS
MGSDKIHHHHHHMKQIKHTFEEKKKMGGKASMWNLWHGCHKWSEGCRHCYVYRTDGKYGKDSSVVTKTEKFGLPLQKKKNGEYKIPSGNLVYTCFTSDFLIEDVDEWRAEAWEMMRIRQDLHFMFITKRIDRLQQCLPPDWGDGYDNVTICCTMENQDRVDYRLPIYKESPIKHKIIICEPLLSQIDFRGELEGWVEQVVAGGESGKEARVCNYDWVLDIRRQCVEAHVGFWFKQTGSYLLKDGHEYKVARQFQHSQARKAELNYTPEK
MGSDKIHHHHHHMKQLILFLLCLSTWTAQAKIYNVKDYGAKADGTTIDSPAINRAIEEAASQGGGTVYFPAGEYACYSIRLASHIHLYIEQGARIVGAFPSATEGYDPAEPNEHTQFQDFGHSHWKNSLIWGIGLEDITISGPGLIYGKGLTREESRLPGVGNKAISLKLCKNVTLKDFSLLHCGHFGLLATGVDNLSILNVKVDTNRDGFDIDCCKNVRISHCTVNAPWDDAIVLKASYGLGYFKDTENVTISDCFVSGYDRGSVLDCTWQRDEPQAPDHGFVTGRIKLGTESSGGFKNIAITNCIFERCRGLALETVDGGKLEDIVISNITMRDIVNAPIFLRLGARMRSPQGTPVGTMKRILISHVNVFNADSRYSSIISGIPGALIEDVTLSDIHIYHQGGYTEADGLLTPPEQEKVYPEPWMFGTIPAKGFYIRHARNITLDNVNFHYEKADGRPLFVTDDASDIRYRNITVDGKEFNTAN
MGSDKIHHHHHHMKRARIIYNPTSGREIFKKHLAQVLQKFEQAGYETSTHATTCAGDATHAAKEAALREFDLIIAAGGDGTINEVVNGLAPLDNRPTLGVIPVGTTNDFARALGIPREDILKAADTVINGVARPIDIGQVNGQYFINIAGGGRLTELTYDVPSKLKTMLGQLAYYLKGMEMLPSLRPTEVEIEYDGKLFQGEIMLFLVTLTNSVGGFEKLAPDSSLNDGMFDLMILKKANLAEFIRVATMALRGEHINDQHIIYTKANRVKVNVSEKMQLNLDGEYGGMLPGEFVNLYRHIHVVMPKEKAEQLDD
MGSDKIHHHHHHMKRAVVVFSGGQDSTTCLIQALQDYDDVHCITFDYGQRHRAEIEVAQELSQKLGAAAHKVLDVGLLNELATSSLTRDSIPVPDYDANAQGIPNTFVPGRNILFLTLASIYAYQVGAEAVITGVCETDFSGYPDCRDEFVKALNQAIVLGIARDIRFETPLMWLNKAETWALADYYQQLDTVRYHTLTCYNGIKGDGCGQCAACHLRANGLAQYQKDAATVMASLKQKVGLR
MGSDKIHHHHHHMKRCPNCGCRGQAAFPEHVPGQVQYGPRLHAFTTLLNVGHFIPLERVTQLTDALFGASISDGTVALNINLASERLEPFEDDLKTGLRQQAVLHADETGAKVNGKLNWFHVACFARGTLYTLHEKRGYAALEAAGVLTDFTGVVVHDAWSTYFRLPGEHALCNAHLLRELRKLDEHDRQPWAGELRRALQQVYHAQKTGTLTDEQRAVFYTRFDELVLAGLEANPVQEPVPKRRGKPKQLPGRNLALRCQQHRAAMLLFLERADVPFDNNQAERDIRMACVKRKVSGGFRSEVGGQAFCRVRSFISTLQKQGLSVWTGLVDVFRGVLPKLDFSC
MGSDKIHHHHHHMKRIGIIAAWQPELNYLHEEYPSRKVRKIAAWEFHYHSINNLEIISVISGVGKTNCSSCTQLLISEFRPDEIYMTGICGSLSDSIKGGEIVIARQMLQHDVTNAGKGDDVWDLYTGRTSIIDGDNSIFSDFLNFAINTSEHKINNGMFISGDQRIREDVLRSSLSSTHNAIAVDQEIASFSYVSYVNKIPFLCVKSVSDQADNKTIEDQKRFKLLACENSCKLLIEFLLR
MGSDKIHHHHHHMKRLIGCVLLFLGASLYGCGGQGEDPETIVSEKPIEEWDDEEEDGGEWTVPDIDLSNFRHDPTEWGENVTGVKTKLDTKEQVIALTLDACGGPHGSQFDEELLAYLQEKEIPATLFVNERWIDENEDVFLSLANNPLFQIENHGSAHKPLSVNGRNAWNIEGTKSPEEVVNEITNNQQRIYQLTGRSTRLFRSGTAFYDEVAVEIANALGVEVVNYSVLGDAGATFTAEQVKAALLNAEPGAIVLMHMNQPASGTAAGVKAAIPLLIEKGYTFARLDEYDLT
MGSDKIHHHHHHMKRSIEDTPVVFLGAGNLATNLAKALYRKGFRIMQVYSRTEESARTLANEVEAEYITDLKDVSNEARLYIISLKDAAFVELLPQITDGKQHALLVHTAGSIPMNIWEGHAERYGVFYPMQTFSKQREVDFREVPFFIEAKRPEDTELLKAVAGTLSDKVYEADSEQRRSLHLAAVFTCNFTNHMYALAAELLEKYHLPFDVMLPLIDETARKVHELAPRDAQTGPAVRYDENVMNKHLSMLADSQALQEIYKLMSKSIHEHHQL
MGSDKIHHHHHHMKSELFYRKLEKCDLCPRNCGVNRLMGEKGACGVANSPVVSSWGPHFGEERILVGRGGSGTVFFTYCNLKCVYCQNYEISQLGIGKEITVEDLLRIFTELQDMGVENLNLVTPTHQIPFIVDAFERMEKEIPVVYNCGGYESVDTIISLEGFVDIYMPDFKYSDPELGEKLSGVKDYPRFALEALKVMIDQMGEPVIRNGVMKKGVLVRHLVLPGFLEDSFGVIDLLSTLEPKPLVNIMAQFYPAYRAKEYGLDRFITRDEYLKVVEYAKKKKLNLIEVERWLRWL
MGSDKIHHHHHHMKSFDEMTPKEIVQELDKYIVGQYEAKKAVAIAVRNRIRRQKLPEEWRKEVLPKNILMIGPTGVGKTEIARRLAQLSGSPFLKVEATRFTEVGYVGKNVDSMIRDLVEISVNMVKQEKIKEVERQAEELVEERILDALVPESKAMPVVTNPFINLITGGQQQQYTPEDRRRFRAKREEMREKLRKGELEDEEIEIELEETVSPFMGIFGPGMEDLGIEITNMFSGMLPKRKKKRKMKVSEARKVLLPLEAEKLIDMDKVVQEALDRAQNRGIIFIDEIDKIAGKESAVGPDVSRQGVQRDLLPIVEGTTIMTKYGPVRTDFILFIAAGAFHVSRPSDLIPELQGRFPIRVELSPLTEEDFVRILKEPENAIIKQYQALLSTEGVELVFTEDGIREMARIAYQLNQRLENIGARRLYTVAEKVLEEISFEAPDIPEKRVVVDAEYVRRRLEKIVQDEDLSAYIL
MGSDKIHHHHHHMKSKNLSPYIKYIELDRVRVPSFSRYPFHLPAVRNLDTLALHPKVTFLVGENGSGKSTILEAIAVAYGFNAEGGTKNFNFSSRRTHSDLSDYVKVVKGTRTPRNGFFLRAESFYNFASNLDDLDSEMAFGPSLIDSYGGRSLHEQSHGESFFAVFLNRFSGDGVYILDEPEAALSPSRQMSMLSRMHELVGEGAQFIIATHSPIIMAYPDALIYQIADDIEQVGYQETEHYRITRAFLNHPQKMLKLLLE
MGSDKIHHHHHHMKSLLAIYPGSIVSEELCIREGCLCFFDESNQRYISIPKTEISEKEVLVLQSFLTPADEGNQLSMKSPEENKWFSFLFSRGELPAYIKKRTRFVHFHLFGKIERTSFTEAVRHFWPVSFVIVWIHEDRGVIVEQESEAAAEKDELESLAKVLESDFYFSVRFYAGRFYEPDECLRKHYAREQAYFLFAEKRLPQVQSVTFEMIFPFLLLETEKEKLETLLSEEAELLFGSESELRKTIKLFIENNSNVTLTAKKLHLHRNSLQYRIDKFIERSGIDIKSYKGALLAYFICLQNESSE
MGSDKIHHHHHHMKSNVVVKYPVNSELANYAEKFWKKELAIYNLSLILNKMTPFVKRRSESYKSSLSAVKEIFKNVDDFQNFLNSVLRRSLDEYRVFFENYERLFNSFSSKIFSMRTKSRLVVGLGDESVYETSIRLHRNYGVPYIPGSALKGVAKHYAFSILARENGDEILRIYESVKEDLKARIAKRDKIKKNDVPEDYYLTAAVIQELFEKKFDELGAIRNTRVEIGDTVISVGDIVKIFGTQKEEGSVIFFDAFPTPEQLKDKPNLELDIMNPHYQPYYQHGEPPGDWHSPNPIFFLTVPAGVEFTFAVASRDLDDLAEKAEKLLKEALKKFGVGAKTSLGYGRFDARDDR
MGSDKIHHHHHHMKTITTWQNNIQIVKDATNIVEISKGFSPDKKYIVTTIDEEKYLLRIGDIQEYERRKIEFQILNEMVKRNVQAQRPIEIGILEEEGVCYSIFSYLEGEDAKKLLPTYSPKKQYEIGIEAGKDLAKMHTYEAPNDTLPWYERAMKKHQKYVEAYKTCGIKIKNDDKIIKFIDENEMYLQNRPNQFQHDDFHLENIIVRDGKYVGVVDFNGYDWGDPLHDFVKIALFARDISIPYSIGQIEGYFNGRIPEEFWKLYAVYVGMTVFSSVVWTLRAAPHMLDDTLERLTVVLEDHKDFELLKPIWFQPEKIDIKK
MGSDKIHHHHHHMKTKVAAIYGKRDVRLRVFELPEITDNELLVSVISDSVCLSTWKAALLGSEHKRVPDDLENHPVITGHECAGVIVEVGKNLTGKYKKGQRFVLQPAMGLPSGYSAGYSYEYFGGNATYMIIPEIAINLGCVLPYHGSYFAAASLAEPMCCIIGAYHANYHTTQYVYEHRMGVKPGGNIALLACAGPMGIGAIDYAINGGIQPSRVVVVDIDDKRLAQVQKLLPVELAASKGIELVYVNTKGMSDPVQMLRALTGDAGFDDIFVYAAVPAVVEMADELLAEDGCLNFFAGPTDKNFKVPFNFYNVHYNSTHVVGTSGGSTDDMKEAIALSATGQLQPSFMVTHIGGLDAVPETVLNLPDIPGGKKLIYNGVTMPLTAIADFAEKGKTDPLFKELARLVEETHGIWNEQAEKYLLAQFGVDIGEAAQ
